# Assays:
# Test in all cases: holdup assay
# Design in all cases: key: below the threshold = too weak to quantify, mostly under pKd 3.1 to 4
# [1] = molecular target: T1, PDZRN3_1, Q9UPQ7
# T1 sequence (Q9UPQ7 244-349, limits assumed, looked up): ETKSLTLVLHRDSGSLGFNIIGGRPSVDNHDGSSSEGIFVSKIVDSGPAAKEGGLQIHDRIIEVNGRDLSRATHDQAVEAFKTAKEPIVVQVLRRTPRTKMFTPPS
# [2] = molecular target: T2, SNTA1, Q13424
# T2 sequence (Q13424 82-180, limits assumed, looked up): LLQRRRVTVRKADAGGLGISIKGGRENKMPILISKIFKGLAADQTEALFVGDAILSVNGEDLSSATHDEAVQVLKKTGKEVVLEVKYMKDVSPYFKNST
# [3] = molecular target: T3, PCLO, Q9Y6V0
# T3 sequence (Q9Y6V0 4491-4600, limits assumed, looked up): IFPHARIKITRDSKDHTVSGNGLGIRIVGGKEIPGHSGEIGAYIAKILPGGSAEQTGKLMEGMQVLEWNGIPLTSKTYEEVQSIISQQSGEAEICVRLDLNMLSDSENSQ
# [4] = molecular target: PDZRN4_1, Q6ZMN7
# [5] = molecular target: LIMK2, P53671
# [6] = molecular target: T4, SNTB1, Q13884
# T4 sequence (Q13884 107-205, limits assumed, looked up): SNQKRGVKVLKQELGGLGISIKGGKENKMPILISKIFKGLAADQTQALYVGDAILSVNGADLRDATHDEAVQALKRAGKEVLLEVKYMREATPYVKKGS
# [7] = molecular target: Inadl_8, Q8NI35
# [8] = molecular target: GORASP2, Q9H8Y8
# [9] = molecular target: IL16_4, Q14005
# [10] = molecular target: T5, LRRC7, Q96NW7
# T5 sequence (Q96NW7 1440-1537, limits assumed, looked up): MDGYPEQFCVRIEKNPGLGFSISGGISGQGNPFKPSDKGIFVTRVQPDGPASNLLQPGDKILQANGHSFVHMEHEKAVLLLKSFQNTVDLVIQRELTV
# [11] = molecular target: T6, LNX2_2, Q8N448
# T6 sequence (Q8N448 334-432, limits assumed, looked up): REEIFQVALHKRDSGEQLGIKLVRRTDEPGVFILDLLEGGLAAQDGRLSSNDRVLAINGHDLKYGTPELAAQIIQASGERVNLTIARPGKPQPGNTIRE
# [12] = molecular target: MAGI2_5, Q86UL8
# [13] = molecular target: HTRA2, O43464
# [14] = molecular target: GRASP, Q7Z6J2
# [15] = molecular target: T7, MPDZ_12, O75970
# T7 sequence (O75970 1857-1958, limits assumed, looked up): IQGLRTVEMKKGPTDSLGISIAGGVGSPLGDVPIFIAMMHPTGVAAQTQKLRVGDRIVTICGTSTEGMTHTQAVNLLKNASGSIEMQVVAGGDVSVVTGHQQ
# [16] = molecular target: T8, LNX2_3, Q8N448
# T8 sequence (Q8N448 463-564, limits assumed, looked up): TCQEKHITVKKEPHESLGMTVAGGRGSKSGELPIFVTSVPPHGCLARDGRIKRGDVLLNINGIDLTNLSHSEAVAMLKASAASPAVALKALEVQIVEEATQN
# [17] = molecular target: T9, LIN7A, O14910
# T9 sequence (O14910 103-200, limits assumed, looked up): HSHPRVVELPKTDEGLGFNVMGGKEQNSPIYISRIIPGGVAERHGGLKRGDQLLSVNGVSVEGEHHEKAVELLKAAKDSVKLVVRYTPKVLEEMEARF
# [18] = molecular target: T10, SYNJ2BP, P57105
# T10 sequence (P57105 8-110, limits assumed, looked up): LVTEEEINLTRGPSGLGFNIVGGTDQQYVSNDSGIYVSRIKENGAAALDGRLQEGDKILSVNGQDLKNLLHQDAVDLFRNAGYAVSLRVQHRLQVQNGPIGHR
# [19] = molecular target: T11, APBA3_1, O96018
# T11 sequence (O96018 389-490, limits assumed, looked up): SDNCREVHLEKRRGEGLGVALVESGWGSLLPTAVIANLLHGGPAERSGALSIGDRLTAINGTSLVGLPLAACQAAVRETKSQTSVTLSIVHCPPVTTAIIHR
# [20] = molecular target: T12, GRIP1_4, Q9Y3R0
# T12 sequence (Q9Y3R0 467-571, limits assumed, looked up): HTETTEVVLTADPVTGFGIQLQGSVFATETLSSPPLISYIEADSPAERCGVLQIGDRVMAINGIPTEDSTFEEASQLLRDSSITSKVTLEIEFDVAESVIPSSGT
# [21] = molecular target: IL16_3, Q14005
# [22] = molecular target: ARHGEF12, Q9NZN5-2
# [23] = molecular target: TJP1_3, Q07157
# [24] = molecular target: T13, NHERF3_3, Q5T2W1
# T13 sequence (Q5T2W1 238-333, limits assumed, looked up): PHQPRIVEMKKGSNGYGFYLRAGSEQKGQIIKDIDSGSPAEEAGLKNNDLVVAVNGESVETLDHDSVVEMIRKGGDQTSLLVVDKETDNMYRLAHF
# [25] = plain residues with an end cap or a label only (N-terminal biotin on a linker: ttds)
# [26] = plain residues with an end cap or a label only (N-terminal biotin on a linker: ahx)
# Sequence of TJP1_3, Q07157 (Q07157 416-512): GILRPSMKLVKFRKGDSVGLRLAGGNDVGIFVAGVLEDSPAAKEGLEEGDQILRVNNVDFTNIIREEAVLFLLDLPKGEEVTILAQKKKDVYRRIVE
# Sequence of ARHGEF12, Q9NZN5-2 (Q9NZN5 other isoform, or with tags, fused parts or gaps): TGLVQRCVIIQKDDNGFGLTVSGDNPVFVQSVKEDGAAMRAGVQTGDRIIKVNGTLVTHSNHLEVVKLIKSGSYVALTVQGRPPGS
# Sequence of MAGI2_5, Q86UL8 (Q86UL8 915-1017): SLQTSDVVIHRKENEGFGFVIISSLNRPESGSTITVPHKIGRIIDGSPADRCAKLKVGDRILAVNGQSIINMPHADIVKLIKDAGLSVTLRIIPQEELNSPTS
# Sequence of PDZRN4_1, Q6ZMN7 (Q6ZMN7 213-318): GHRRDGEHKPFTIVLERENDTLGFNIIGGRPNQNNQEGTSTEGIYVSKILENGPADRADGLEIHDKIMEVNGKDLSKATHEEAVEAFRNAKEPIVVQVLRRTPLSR
# Sequence of GRASP, Q7Z6J2 (Q7Z6J2 96-193): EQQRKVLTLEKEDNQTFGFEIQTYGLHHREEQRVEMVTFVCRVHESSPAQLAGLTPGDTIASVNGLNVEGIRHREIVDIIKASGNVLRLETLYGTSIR
# Sequence of LIMK2, P53671 (P53671 143-248): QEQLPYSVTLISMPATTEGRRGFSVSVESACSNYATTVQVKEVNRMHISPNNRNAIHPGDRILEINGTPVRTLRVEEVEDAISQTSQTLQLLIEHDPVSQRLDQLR
# Sequence of IL16_3, Q14005 (Q14005 1107-1207): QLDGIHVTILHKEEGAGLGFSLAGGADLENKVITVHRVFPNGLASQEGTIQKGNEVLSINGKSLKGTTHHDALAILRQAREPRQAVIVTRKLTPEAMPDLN
# Sequence of HTRA2, O43464 (O43464 355-458): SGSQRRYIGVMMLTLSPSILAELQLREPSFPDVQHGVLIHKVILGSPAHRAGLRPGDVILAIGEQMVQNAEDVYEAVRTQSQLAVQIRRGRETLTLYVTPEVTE
# Sequence of Inadl_8, Q8NI35 (Q8NI35 1425-1530): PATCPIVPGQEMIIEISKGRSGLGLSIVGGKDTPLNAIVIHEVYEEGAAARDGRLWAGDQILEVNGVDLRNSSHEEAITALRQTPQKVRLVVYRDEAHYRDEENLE
# Sequence of IL16_4, Q14005 (Q14005 1229-1329): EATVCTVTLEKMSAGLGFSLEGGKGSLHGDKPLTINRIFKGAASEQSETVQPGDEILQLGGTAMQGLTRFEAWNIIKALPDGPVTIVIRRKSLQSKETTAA
binder,measurement,setting,value
"PKTPPTDTSV [KIR3DL3, Q8N743]",pKd,[1]; [25],below the threshold
same,pKd,[2]; [25],below the threshold
same,pKd,[3]; [25],below the threshold
same,pKd,[4]; [25],below the threshold
same,pKd,[5]; [25],below the threshold
same,pKd,[6]; [25],below the threshold
same,pKd,[7]; [25],below the threshold
same,pKd,[8]; [25],4.04
same,pKd,[9]; [25],below the threshold
same,pKd,[10]; [25],below the threshold
same,pKd,[11]; [25],below the threshold
same,pKd,[12]; [25],below the threshold
same,pKd,[13]; [25],below the threshold
same,pKd,[14]; [25],below the threshold
same,pKd,[15]; [25],below the threshold
same,pKd,[16]; [25],below the threshold
same,pKd,[17]; [25],below the threshold
same,pKd,[18]; [25],4.44
same,pKd,[19]; [25],below the threshold
same,pKd,[20]; [25],below the threshold
same,pKd,[21]; [25],below the threshold
same,pKd,[22]; [25],below the threshold
same,pKd,[23]; [25],below the threshold
same,pKd,[24]; [25],below the threshold
"VLRLQSETSV [VANGL1, Q8TAA9]",pKd,[1]; [25],4.4
same,pKd,[2]; [25],4.52
same,pKd,[3]; [25],below the threshold
same,pKd,[4]; [25],4.46
same,pKd,[5]; [25],below the threshold
same,pKd,[6]; [25],4.57
same,pKd,[7]; [25],below the threshold
same,pKd,[8]; [25],below the threshold
same,pKd,[9]; [25],below the threshold
same,pKd,[10]; [25],below the threshold
same,pKd,[11]; [25],4.15
same,pKd,[12]; [25],4
same,pKd,[13]; [25],below the threshold
same,pKd,[14]; [25],below the threshold
same,pKd,[15]; [25],below the threshold
same,pKd,[16]; [25],below the threshold
same,pKd,[17]; [25],below the threshold
same,pKd,[18]; [25],5.41
same,pKd,[19]; [25],below the threshold
same,pKd,[20]; [25],below the threshold
same,pKd,[21]; [25],below the threshold
same,pKd,[22]; [25],3.7
same,pKd,[23]; [25],below the threshold
same,pKd,[24]; [25],below the threshold
"GQDSREETQL [KCNT2, Q6UVM3]",pKd,[1]; [25],4.97
same,pKd,[2]; [25],4.06
same,pKd,[3]; [25],below the threshold
same,pKd,[4]; [25],4.97
same,pKd,[5]; [25],below the threshold
same,pKd,[6]; [25],4.49
same,pKd,[7]; [25],below the threshold
same,pKd,[8]; [25],below the threshold
same,pKd,[9]; [25],below the threshold
same,pKd,[10]; [25],below the threshold
same,pKd,[11]; [25],below the threshold
same,pKd,[12]; [25],4.37
same,pKd,[13]; [25],below the threshold
same,pKd,[14]; [25],below the threshold
same,pKd,[15]; [25],below the threshold
same,pKd,[16]; [25],below the threshold
same,pKd,[17]; [25],below the threshold
same,pKd,[18]; [25],4.62
same,pKd,[19]; [25],below the threshold
same,pKd,[20]; [25],below the threshold
same,pKd,[21]; [25],below the threshold
same,pKd,[22]; [25],4.67
same,pKd,[23]; [25],below the threshold
same,pKd,[24]; [25],below the threshold
"TEAKLTETNA [MYO18A, Q92614]",pKd,[1]; [26],below the threshold
same,pKd,[2]; [26],below the threshold
same,pKd,[3]; [26],below the threshold
same,pKd,[4]; [26],below the threshold
same,pKd,[5]; [26],below the threshold
same,pKd,[6]; [26],below the threshold
same,pKd,[7]; [26],below the threshold
same,pKd,[8]; [26],below the threshold
same,pKd,[9]; [26],below the threshold
same,pKd,[10]; [26],below the threshold
same,pKd,[11]; [26],below the threshold
same,pKd,[12]; [26],below the threshold
same,pKd,[13]; [26],below the threshold
same,pKd,[14]; [26],below the threshold
same,pKd,[15]; [26],below the threshold
same,pKd,[16]; [26],below the threshold
same,pKd,[17]; [26],below the threshold
same,pKd,[18]; [26],below the threshold
same,pKd,[19]; [26],below the threshold
same,pKd,[20]; [26],below the threshold
same,pKd,[21]; [26],below the threshold
same,pKd,[22]; [26],below the threshold
same,pKd,[23]; [26],below the threshold
same,pKd,[24]; [26],below the threshold
"IDNDTESTAL [ARHGAP17, Q68EM7]",pKd,[1]; [25],4.44
same,pKd,[2]; [25],3.73
same,pKd,[3]; [25],below the threshold
same,pKd,[4]; [25],4.26
same,pKd,[5]; [25],below the threshold
same,pKd,[6]; [25],4.13
same,pKd,[7]; [25],below the threshold
same,pKd,[8]; [25],below the threshold
same,pKd,[9]; [25],below the threshold
same,pKd,[10]; [25],below the threshold
same,pKd,[11]; [25],below the threshold
same,pKd,[12]; [25],4.47
same,pKd,[13]; [25],below the threshold
same,pKd,[14]; [25],4.77
same,pKd,[15]; [25],below the threshold
same,pKd,[16]; [25],below the threshold
same,pKd,[17]; [25],below the threshold
same,pKd,[18]; [25],4.01
same,pKd,[19]; [25],below the threshold
same,pKd,[20]; [25],below the threshold
same,pKd,[21]; [25],below the threshold
same,pKd,[22]; [25],4.77
same,pKd,[23]; [25],below the threshold
same,pKd,[24]; [25],below the threshold
"QSARYRDTEL [TJP2, Q9UDY2]",pKd,[1]; [25],4.67
same,pKd,[2]; [25],4.38
same,pKd,[3]; [25],below the threshold
same,pKd,[4]; [25],4.41
same,pKd,[5]; [25],below the threshold
same,pKd,[6]; [25],3.86
same,pKd,[7]; [25],below the threshold
same,pKd,[8]; [25],below the threshold
same,pKd,[9]; [25],below the threshold
same,pKd,[10]; [25],3.86
same,pKd,[11]; [25],below the threshold
same,pKd,[12]; [25],3.48
same,pKd,[13]; [25],below the threshold
same,pKd,[14]; [25],below the threshold
same,pKd,[15]; [25],below the threshold
same,pKd,[16]; [25],3.53
same,pKd,[17]; [25],below the threshold
same,pKd,[18]; [25],5.1
same,pKd,[19]; [25],below the threshold
same,pKd,[20]; [25],below the threshold
same,pKd,[21]; [25],below the threshold
same,pKd,[22]; [25],4.27
same,pKd,[23]; [25],below the threshold
same,pKd,[24]; [25],below the threshold
